Experimental data published in patent US20230250157A1 (CALIFORNIA INSTITUTE OF TECHNOLOGY, published 2023).

Target: SARS-CoV-2 WA1 D614G spike on pseudovirus (SARS-CoV-2 WA1, UniProt P0DTC2 14-1252)
Experiment: cell-based or functional assay

B1: M8a-3 (antibody, V domains shown)
VH: QVQLQQPGAELVLPGASVKLSCKASGYTFTNYWMHWVKQRPGHGLEWIGEIDPFDTYIKINQKFKGKSTLTVDTSSSTAYMQLSSLTSEDSAVYYCARPDSSGYPVYFDYWGQGTTLTVSS
VL: DIVMTQSHKFMSTSVGDRVSITCKASQDVGTYIAWYQQKPGQSPKLLIYWASTRHTGVPDRFTGSGSGTNYTLTISSVQAEDLALYHCQQHYSTPYTFGGGTKLEIK
  pseudovirus neutralization IC50: 0.18 µg/mL
